US20240376207A1 (JIANGSU HENGRUI PHARMACEUTICALS, published 2024)

What was measured:
[1] = target: T1, human PVRIG expressed on cells (human, UniProt Q6DKI7 41-326); assay: FACS, HEK293 cells overexpressing target
T1 construct: whole, on cells; also called Human PVRIG FACS; cells overexpressing human PVRIG
T1 sequence (looked up): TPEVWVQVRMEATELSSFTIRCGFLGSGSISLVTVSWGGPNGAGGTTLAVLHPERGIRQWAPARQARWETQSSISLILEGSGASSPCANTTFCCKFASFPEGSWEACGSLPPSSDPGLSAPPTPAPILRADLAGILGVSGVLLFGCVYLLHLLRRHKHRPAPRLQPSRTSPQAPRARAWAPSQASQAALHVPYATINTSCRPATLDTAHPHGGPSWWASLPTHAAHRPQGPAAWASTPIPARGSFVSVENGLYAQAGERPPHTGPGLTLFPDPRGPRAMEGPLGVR
Procedure: (§1) The expression plasmid carrying human or cynomolgus monkey PVRIG gene sequence was transfected into HEK293 cells, and the over-expressing stable transfection monoclonal cell strain was obtained by antibiotic screening and infinite dilution. Overexpressing cells were seeded into a 96-well plate at 2×10⁵ cells/per well. The cells were centrifuged at 300 g for 5 min, the supernatant was then removed, 100 μL of the test antibody was added, and the mixture was incubated at 4° C. for 1 h. The mixture was centrifuged, the supernatant was removed, the plate was washed 3 times with 200 μL of wash buffer (PBS+2% FBS), and then 100 μL of an anti-human IgG secondary antibody (Invitrogen, A-11013) labeled with Alexa Fluor 488 diluted at 1:500 was added. The mixture was incubated at 4° C. for 1 h. The plate was centrifuged, and the supernatant was removed. The plate was washed 3 times with 200 μL of wash buffer (PBS+2% FBS). The cells were resuspended in 100 μL of PBS and tested on a flow cytometer (BD FACS Calibur or BD FACS Canto_II).
(§2) Binding of the humanized anti-PVRIG antibodies to human or cynomolgus monkey PVRIG was detected by using a flow cytometer according to the method of Example 5.

[2] = target: T2, cynomolgus monkey PVRIG expressed on cells (cynomolgus monkey, UniProt A0A2K5WVV8 1-322); assay: FACS, HEK293 cells overexpressing target
T2 construct: whole, on cells; also called Monkey PVRIG FACS; cells overexpressing cynomolgus monkey PVRIG
T2 sequence: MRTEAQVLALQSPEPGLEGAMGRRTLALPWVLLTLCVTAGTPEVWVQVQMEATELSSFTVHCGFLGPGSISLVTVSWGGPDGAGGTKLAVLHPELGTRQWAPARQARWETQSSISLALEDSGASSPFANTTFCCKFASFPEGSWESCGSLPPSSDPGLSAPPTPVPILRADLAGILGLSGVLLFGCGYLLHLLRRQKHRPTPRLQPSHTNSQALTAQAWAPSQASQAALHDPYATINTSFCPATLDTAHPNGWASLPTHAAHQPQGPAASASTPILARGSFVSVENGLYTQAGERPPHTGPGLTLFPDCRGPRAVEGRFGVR
Procedure: as §1, §2

[3] = target: T1, human PVRIG expressed on cells; assay: cell-based or functional assay
[4] = target: T3, his-tagged human PVRIG (h-PVRIG-his) recombinant protein (human, UniProt Q6DKI7 41-171, limits assumed); assay: BLI (Fortebio), antibody on Protein A sensor, 1:1 fit
T3 construct: bought from Acrobiosystems; also called Human PVRIG-his; human PVRIG recombinant protein; not shown: his tag
T3 sequence (looked up): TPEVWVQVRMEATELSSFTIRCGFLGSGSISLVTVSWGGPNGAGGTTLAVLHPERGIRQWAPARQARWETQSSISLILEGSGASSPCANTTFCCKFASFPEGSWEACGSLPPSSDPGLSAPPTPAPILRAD
Procedure: A Protein A biosensor (Fortebio, #18-5010) was immersed in 200 μL of KB buffer (PBS, pH 7.4, 0.02% tween-20, 0.1% BSA) for 60 s for the wetting treatment. Then, the anti-PVRIG antibody was diluted to 10 μg/mL with the KB buffer, and the sensor was immersed in 200 μL of the solution until the reading was 1.2 nm. The sensor was immersed in the KB buffer for 100 s to elute excess antibody. The his-tagged human PVRIG was diluted in a 2-fold gradient to 64 nM-4 nM with the KB buffer. The sensor was immersed in the solution for 300 s for binding. The sensor was immersed in the KB buffer for 600 s for dissociation. The data were fitted in a dynamic 1:1 binding mode.
The affinity of the humanized anti-PVRIG antibodies for human PVRIG was detected according to the method of Example 7. All the antibodies listed in the Table have high affinity for human PVRIG.

[5] = target: T1, human PVRIG expressed on cells; assay: cell-based or functional assay; remark: listed apart in the source

B1: humanized anti-PVRIG antibody 20H4 (antibody, human IgG4 S228P, F234A L235A, V domains shown)
VH: EVQLVESGGGLVQPGGSLRLSCAASGYTSRTDCMGWFRQAPGKGLEGVAHIDSDGIPRYVDSVKGRFTISQDHAKNSLYLQMNSLRAEDTAVYYCVVGFKFDEDYCAPNDWGQGTMVTVSS
Work on B1 yielded an EC50 [1] of 0.008 nM and an EC50 [2] of 0.591 nM.

B2: humanized anti-PVRIG antibody 20H3 (antibody, human IgG4 S228P, F234A L235A, V domains shown)
VH: EVQLVESGGGLVQPGGSLRLSCAASGYTFSTDCMGWFRQAPGKGLEGVAHIDSDGIPRYVDSVKGRFTISQDHAKNSLYLQMNSLRAEDTAVYYCVVGFKFDEDYCAPNDWGQGTMVTVSS
B2 was tested, and the EC50 [1] was 0.006 nM and the EC50 [2] was 1.5 nM.

B3: humanized anti-PVRIG antibody 20H1 (antibody, human IgG4 S228P, F234A L235A, V domains shown)
VH: EVQLVESGGGLVQPGGSLRLSCAASGFTFSTDCMGWFRQAPGKGLEGVAHIDSDGIPRYVDSVKGRFTISRDNAKNSLYLQMNSLRAEDTAVYYCVVGFKFDEDYCAPNDWGQGTMVTVSS
Binder B3 has an EC50 [1] of 0.019 nM and an EC50 [2] of 0.658 nM.

B4: humanized anti-PVRIG antibody 20H2 (antibody, human IgG4 S228P, F234A L235A, V domains shown)
VH: EVQLVESGGGLVQPGGSLRLSCAASGFTSRTDCMGWFRQAPGKGLEGVAHIDSDGIPRYVDSVKGRFTISRDNAKNSLYLQMNSLRAEDTAVYYCVVGFKFDEDYCAPNDWGQGTMVTVSS
Work on B4 yielded an EC50 [1] of 0.006 nM and an EC50 [2] of 0.338 nM.

B5: humanized anti-PVRIG antibody 30H3 (antibody, human IgG4 S228P, F234A L235A, V domains shown)
VH: EVQLVESGGGLVQPGGSLRLSCAASGYSYSGDCMGWFRQAPGKGLDEGVATIDNAGRIKYADSVKGRFTISRDNAKNSLYLQMNSLRAEDTAVYYCAAGWTFGGQCSPADWGQGTQVTVSS
For B5, the “PVRIG reporter gene cell activity EC50” value [3] was 0.078 nM, the EC50 [1] was 0.004 nM and the EC50 [2] was 0.003 nM. It also gave a Kd [4] of 2.41 nM, a koff [4] of 0.000358 s⁻¹ and a kon [4] of 148000 M⁻¹ s⁻¹.

B6: humanized anti-PVRIG antibody 38H9 (antibody, human IgG4 S228P, F234A L235A, V domains shown)
VH: EVQLVESGGGVVQPGGSLRLSCAASPSTYGPSDMAWFRQAPGKGLEGVATISAAGRLTYYTDSVRGRFTISRDNSKNTMYLQMNSLRAEDTAVYYCAADFAGGSSLFADYKYWGQGTMVTVSS
B6 gave an EC50 [1] of 0.068 nM.

B7: humanized anti-PVRIG antibody 38H7 (antibody, human IgG4 S228P, F234A L235A, V domains shown)
VH: EVQLVESGGGVVQPGGSLRLSCAASPSTYGPSDMAWFRQAPGKQREGVATISAAGRLTYYTDSVRGRFTISRDNSKNTMYLQMNSLRAEDTAVYYCAADFAGGSSLFADYKYWGQGTMVTVSS
B7 was tested, and the EC50 [1] was 0.04 nM and the EC50 [2] was 0.049 nM.

B8: humanized anti-PVRIG antibody 38H4 (antibody, human IgG4 S228P, F234A L235A, V domains shown)
VH: EVQLVESGGGVVQPGGSLRLSCAASPFTYGPSDMAWFRQAPGKGLEGVATISAAGRLTYYTDSVRGRFTISRDNSKNTLYLQMNSLRAEDTAVYYCAADFAGGSSLFADYKYWGQGTMVTVSS
B8 gave an EC50 [1] of 0.062 nM and an EC50 [2] of 0.095 nM.

B9: humanized anti-PVRIG antibody 38H8 (antibody, human IgG4 S228P, F234A L235A, V domains shown)
VH: EVQLVESGGGVVQPGGSLRLSCAASPSTYGPSDMAWFRQAPGKGLEGVATISAAGRLTYYTDSVRGRFTISRDNSKNTLYLQMNSLRAEDTAVYYCAADFAGGSSLFADYKYWGQGTMVTVSS
In the case of B9, the EC50 [1] is reported as 0.065 nM.

B10: humanized anti-PVRIG antibody 38H2 (antibody, human IgG4 S228P, F234A L235A, V domains shown)
VH: EVQLVESGGGVVQPGGSLRLSCAASGFTFSPSDMAWFRQAPGKGLEGVATISAAGRLTYYTDSVRGRFTISRDNSKNTLYLQMNSLRAEDTAVYYCAADFAGGSSLFADYKYWGQGTMVTVSS
B10 showed an EC50 [1] of 0.088 nM and an EC50 [2] of 0.137 nM.

B11: humanized anti-PVRIG antibody 151H9 (antibody, human IgG4 S228P, F234A L235A, V domains shown)
VH: HVQLVESGGGLVQPGGSLRLSCVASASGFTYRPYCMAWFRQAPGKGLEAVAGIDIFGGTTYADSVKGRFTASRDNAGFSLYLQMNSLRAEDTAVYYCAAGDSPDGRCPPLGQGLNYWGQGTMVTVSS
B11 showed an EC50 [1] of 0.004 nM and an EC50 [2] of 3.94 nM.

B12: humanized anti-PVRIG antibody 151H4 (antibody, human IgG4 S228P, F234A L235A, V domains shown)
VH: EVQLVESGGGLVQPGGSLRLSCVASASGFTYRPYCMAWFRQAPGKGLEAVAGIDIFGGTTYADSVKGRFTISRDNAKNSLYLQMNSLRAEDTAVYYCAAGDSPDGRCPPLGQGLNYWGQGTMVTVSS
B12 was tested, and the “PVRIG reporter gene cell activity EC50” value [3] was 3.55 nM, the EC50 [1] was 0.24 nM and the EC50 [2] was 0.035 nM.

B13: humanized anti-PVRIG antibody 39H4 (antibody, human IgG4 S228P, F234A L235A, V domains shown)
VH: EVQLVESGGGLVQPGGSLRLSCAASGYTSRTDCMGWFRQAPGKGLEGVAHIDSDGIPRYVESVKGRFTISQDHAKNSLYLQMNSLRAEDTAVYYCVVGFKFGDYCAPNDWGQGTMVTVSS
In the case of B13, the “PVRIG reporter gene cell activity EC50” value [3] is reported as 0.094 nM, the EC50 [1] is reported as 0.005 nM and the EC50 [2] is reported as 0.006 nM. The Kd [4] was 0.482 nM, the koff [4] was 9.11e-05 s⁻¹ and the kon [4] was 189000 M⁻¹ s⁻¹.

B14: humanized anti-PVRIG antibody 39H5 (antibody, human IgG4 S228P, F234A L235A, V domains shown)
VH: EVQLVESGGGLVQPGGSLRLSCAASGYTSRTDCMGWFRQAPGKEREGVAHIDSDGIPRYVESVKGRFTISQDHAKNSLYLQMNSLRAEDTAVYYCVVGFKFGDYCAPNDWGQGTMVTVSS
For B14, the EC50 [1] was 0.006 nM and the EC50 [2] was 0.208 nM.

B15: humanized anti-PVRIG antibody 39H1 (antibody, human IgG4 S228P, F234A L235A, V domains shown)
VH: EVQLVESGGGLVQPGGSLRLSCAASGFTFSTDCMGWFRQAPGKGLEGVAHIDSDGIPRYVESVKGRFTISRDNAKNSLYLQMNSLRAEDTAVYYCVVGFKFGDYCAPNDWGQGTMVTVSS
In the case of B15, the “PVRIG reporter gene cell activity EC50” value [3] is reported as 0.191 nM, the “NK92 killing of K562, killing activity (%), 4 nM antibody” value [5] is reported as 13.7% and the “NK92 killing of K562, killing activity (%), 20 nM antibody” value [5] is reported as 17.7%. For the same binder, the “NK92 killing of K562, killing activity (%), 100 nM antibody” value [5] was 21.2%, the EC50 [1] was 0.004 nM and the EC50 [2] was 0.251 nM. The Kd [4] was 3.28 nM, the koff [4] was 0.000865 s⁻¹ and the kon [4] was 264000 M⁻¹ s⁻¹.

B16: humanized anti-PVRIG antibody 39H2 (antibody, human IgG4 S228P, F234A L235A, V domains shown)
VH: EVQLVESGGGLVQPGGSLRLSCAASGFTSRTDCMGWFRQAPGKGLEGVAHIDSDGIPRYVESVKGRFTISRDNAKNSLYLQMNSLRAEDTAVYYCVVGFKFGDYCAPNDWGQGTMVTVSS
In the case of B16, the “PVRIG reporter gene cell activity EC50” value [3] is reported as 0.074 nM, the “NK92 killing of K562, killing activity (%), 4 nM antibody” value [5] is reported as 15.3% and the “NK92 killing of K562, killing activity (%), 20 nM antibody” value [5] is reported as 18.7%. For the same binder, the “NK92 killing of K562, killing activity (%), 100 nM antibody” value [5] was 19.7%, the EC50 [1] was 0.006 nM and the EC50 [2] was 0.019 nM. It also gave a Kd [4] of 0.692 nM, a koff [4] of 0.000124 s⁻¹ and a kon [4] of 180000 M⁻¹ s⁻¹.

B17: humanized anti-PVRIG antibody 39H3 (antibody, human IgG4 S228P, F234A L235A, V domains shown)
VH: EVQLVESGGGLVQPGGSLRLSCAASGYTFSTDCMGWFRQAPGKGLEGVAHIDSDGIPRYVESVKGRFTISQDHAKNSLYLQMNSLRAEDTAVYYCVVGFKFGDYCAPNDWGQGTMVTVSS
Work on B17 yielded an EC50 [1] of 0.005 nM and an EC50 [2] of 0.348 nM.

B18: humanized anti-PVRIG antibody 30H1 (antibody, human IgG4 S228P, F234A L235A, V domains shown)
VH: EVQLVESGGGLVQPGGSLRLSCAASGFTFSGDCMGWFRQAPGKGLEGVATIDNAGRIKYADSVKGRFTISRDNAKNSLYLQMNSLRAEDTAVYYCAAGWTFGGQCSPADWGQGTQVTVSS
B18 gave an EC50 [1] of 0.024 nM and an EC50 [2] of 0.374 nM.
